Data reported in US20240392004A1 (IMMUNOWAKE, published 2024).
Changes are numbered by the printed parent chain. Numbers in names are those of the source.

T1: human IL-2 receptor (IL-2Rα, IL-2Rβ, IL-2Rγ) (human, UniProt P01589 22-272; P14784 27-551; P31785 23-369)
T1 sequence (looked up) 1: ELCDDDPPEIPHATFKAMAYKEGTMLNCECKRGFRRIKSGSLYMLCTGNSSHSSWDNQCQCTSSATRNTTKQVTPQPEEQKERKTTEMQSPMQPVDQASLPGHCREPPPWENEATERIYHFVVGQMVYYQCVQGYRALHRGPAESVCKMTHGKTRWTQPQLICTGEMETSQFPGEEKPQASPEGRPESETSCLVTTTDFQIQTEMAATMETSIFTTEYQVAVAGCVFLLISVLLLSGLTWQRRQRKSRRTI
T1 sequence (looked up) 2: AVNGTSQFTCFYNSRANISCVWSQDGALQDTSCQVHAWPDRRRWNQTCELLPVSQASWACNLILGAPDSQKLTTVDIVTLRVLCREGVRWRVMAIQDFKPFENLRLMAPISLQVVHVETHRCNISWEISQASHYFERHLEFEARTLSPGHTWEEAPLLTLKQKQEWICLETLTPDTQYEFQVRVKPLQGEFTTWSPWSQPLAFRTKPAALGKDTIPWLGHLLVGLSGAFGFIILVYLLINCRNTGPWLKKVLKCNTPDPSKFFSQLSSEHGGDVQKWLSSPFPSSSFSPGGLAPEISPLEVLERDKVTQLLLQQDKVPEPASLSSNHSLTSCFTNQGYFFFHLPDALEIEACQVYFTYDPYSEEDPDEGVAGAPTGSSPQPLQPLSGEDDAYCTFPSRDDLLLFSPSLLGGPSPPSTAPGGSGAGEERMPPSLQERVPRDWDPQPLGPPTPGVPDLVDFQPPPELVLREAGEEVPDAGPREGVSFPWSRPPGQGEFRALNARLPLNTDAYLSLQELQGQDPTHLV
T1 sequence (looked up) 3: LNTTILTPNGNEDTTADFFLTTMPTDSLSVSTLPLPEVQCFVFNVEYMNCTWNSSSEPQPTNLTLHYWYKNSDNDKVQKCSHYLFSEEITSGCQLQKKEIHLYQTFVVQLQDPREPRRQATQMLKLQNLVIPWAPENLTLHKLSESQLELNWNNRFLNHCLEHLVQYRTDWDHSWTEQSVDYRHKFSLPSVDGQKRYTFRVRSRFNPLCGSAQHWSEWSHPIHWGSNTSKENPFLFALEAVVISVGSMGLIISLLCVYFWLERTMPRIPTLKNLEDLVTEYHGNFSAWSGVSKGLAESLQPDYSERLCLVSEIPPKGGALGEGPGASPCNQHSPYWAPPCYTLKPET

T2: human TIGIT on HEK-Blue reporter cells (human, UniProt Q495A1 22-244)
T2 sequence (looked up): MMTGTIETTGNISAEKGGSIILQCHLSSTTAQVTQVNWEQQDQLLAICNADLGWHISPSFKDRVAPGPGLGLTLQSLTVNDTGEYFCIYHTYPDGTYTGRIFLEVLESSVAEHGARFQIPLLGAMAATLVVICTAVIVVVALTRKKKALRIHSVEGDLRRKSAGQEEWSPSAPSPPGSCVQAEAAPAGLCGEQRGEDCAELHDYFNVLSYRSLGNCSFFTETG

B1: IL-12(E59A/F60A)/CD155-Fc (IL-12 at hinge) (Fc fusion)
chain 1: WPPPGTGDVVVQAPTQVPGFLGDSVTLPCYLQVPNMEVTHVSQLTWARHGESGSMAVFHQTQGPSYSESKRLEFVAARLGAELRNASLRMFGLRVEDEGNYTCLFVTFPQGSRSVDIWLRVLAKPQNTAEVQKVQLTGEPVPMARCVSTGGRPPAQITWHSDLGGMPNTSQVPGFLSGTVTVTSLWILVPSSQVDGKNVTCKVEHESFEKPQLLTVNLTVYYPPEVSISGYDNNWYLGQNEATLTCDARSNPEPTGYNWSTTMGPLPPFAVAQGAQLLIRPVDKPINTTLICNVTNALGARQAELTVQVKEGPPSEHSGISRNGGGGSGGGIWELKKDVYVVELDWYPDAPGEMVVLTCDTPEEDGITWTLDQSSEVLGSGKTLTIQVKAAGDAGQYTCHKGGEVLSHSLLLLHKKEDGIWSTDILKDQKEPKNKTFLRCEAKNYSGRFTCWWLTTISTDLTFSVKSSRGSSDPQGVTCGAATLSAERVRGDNKEYEYSVECQEDSACPAAEESLPIEVMVDAVHKLKYENYTSSFFIRDIIKPDPPKNLQLKPLKNSRQVEVSWEYPDTWSTPHSYFSLTFCVQVQGKSKREKKDRVFTDKTSATVICRKNASISVRAQDRYYSSSWSEWASVPCSGGGGSGGGSGGGGSRNLPVATPDPGMFPCLHHSQNLLRAVSNMLQKARQTLEFYPCTSEEIDHEDITKDKTSTVEACLPLELTKNESCLNSRETSFITNGSCLASRKTSFMMALCLSSIYEDLKMYQVEFKTMNAKLLMDPKRQIFLDQNMLAVIDELMQALNFNSETVPQKSSLEEPDFYKTKIKLCILLHAFRIRAVTIDRVMSYLNASGGGGSGGGDKTHTCPPCPAPEDEGGPSVFLFPPKPKDTLMISRTPEVTCVVVDVSHEDPEVKFNWYVDGVEVHNAKTKPREEQYNSTYRVVSVLTVLHQDWLNGKEYKCKVSNKALPAPIEKTISKAKGQPREPQVYVYPPSREEMTKNQVSLTCLVKGFYPSDIAVEWESNGQPENNYKTTPPVLDEDGSFALVSKLTVDKSRWQQGNVFSCSVMHEALHNHYTQKSLSLSPGK
chain 2: WPPPGTGDVVVQAPTQVPGFLGDSVTLPCYLQVPNMEVTHVSQLTWARHGESGSMAVFHQTQGPSYSESKRLEFVAARLGAELRNASLRMFGLRVEDEGNYTCLFVTFPQGSRSVDIWLRVLAKPQNTAEVQKVQLTGEPVPMARCVSTGGRPPAQITWHSDLGGMPNTSQVPGFLSGTVTVTSLWILVPSSQVDGKNVTCKVEHESFEKPQLLTVNLTVYYPPEVSISGYDNNWYLGQNEATLTCDARSNPEPTGYNWSTTMGPLPPFAVAQGAQLLIRPVDKPINTTLICNVTNALGARQAELTVQVKEGPPSEHSGISRNGGGGSGGGDKTHTCPPCPAPEKKGGPSVFLFPPKPKDTLMISRTPEVTCVVVDVSHEDPEVKFNWYVDGVEVHNAKTKPREEQYNSTYRVVSVLTVLHQDWLNGKEYKCKVSNKALPAPIEKTISKAKGQPREPQVYVLPPSREEMTKNQVSLLCLVKGFYPSDIAVEWESNGQPENRYMTWPPVLDSDGSFFLYSKLTVDKSRWQQGNVFSCSVMHEALHNHYTQKSLSLSPGK
B2: IL-12(E59A/F60A)/IL-2(L18R/Q22E/R38D/K43E/E61R/Q126T)/CD155-Fc (Fc fusion)
chain 1: B1 chain 1
chain 2: WPPPGTGDVVVQAPTQVPGFLGDSVTLPCYLQVPNMEVTHVSQLTWARHGESGSMAVFHQTQGPSYSESKRLEFVAARLGAELRNASLRMFGLRVEDEGNYTCLFVTFPQGSRSVDIWLRVLAKPQNTAEVQKVQLTGEPVPMARCVSTGGRPPAQITWHSDLGGMPNTSQVPGFLSGTVTVTSLWILVPSSQVDGKNVTCKVEHESFEKPQLLTVNLTVYYPPEVSISGYDNNWYLGQNEATLTCDARSNPEPTGYNWSTTMGPLPPFAVAQGAQLLIRPVDKPINTTLICNVTNALGARQAELTVQVKEGPPSEHSGISRNGGGSGAPTSSSTKKTQLQLEHLRLDLEMILNGINNYKNPKLTDMLTFEFYMPKKATELKHLQCLERELKPLEEVLNLAQSKNFHLRPRDLISNINVIVLELKGSETTFMCEYADETATIVEFLNRWITFCTSIISTLTGGGGSGGGDKTHTCPPCPAPEKKGGPSVFLFPPKPKDTLMISRTPEVTCVVVDVSHEDPEVKFNWYVDGVEVHNAKTKPREEQYNSTYRVVSVLTVLHQDWLNGKEYKCKVSNKALPAPIEKTISKAKGQPREPQVYVLPPSREEMTKNQVSLLCLVKGFYPSDIAVEWESNGQPENRYMTWPPVLDSDGSFFLYSKLTVDKSRWQQGNVFSCSVMHEALHNHYTQKSLSLSPGK
B3: IL-12(E59A/F60A)/IL-2(L18R/Q22E/R38D/K43E/E61R/Q126T/S130R)/CD155-Fc (Fc fusion)
chain 1: B1 chain 1
chain 2: B2 chain 2 with S458R
B4: IL-12(E59A/F60A)/IL-2(R38D/K43E/E61R/Q126T)/CD155-Fc (Fc fusion)
chain 1: B1 chain 1
chain 2: B2 chain 2 with R346L, E350Q
B5: IL-12(E59A/F60A)/IL-2(L18R/Q22E/R38D/K43E/E61R)/CD155-Fc (Fc fusion)
chain 1: B1 chain 1
chain 2: B2 chain 2 with T454Q

Each binder was assayed against human IL-12 receptor complex (IL-12Rβ1 and IL-12Rβ2) (human, UniProt P42701 24-662; Q99665 24-862) (assay: cell-based or functional assay).
human IL-12 receptor complex (IL-12Rβ1 and IL-12Rβ2), sequence (Q99665 24-862, chain 2 of 2, other chains not shown): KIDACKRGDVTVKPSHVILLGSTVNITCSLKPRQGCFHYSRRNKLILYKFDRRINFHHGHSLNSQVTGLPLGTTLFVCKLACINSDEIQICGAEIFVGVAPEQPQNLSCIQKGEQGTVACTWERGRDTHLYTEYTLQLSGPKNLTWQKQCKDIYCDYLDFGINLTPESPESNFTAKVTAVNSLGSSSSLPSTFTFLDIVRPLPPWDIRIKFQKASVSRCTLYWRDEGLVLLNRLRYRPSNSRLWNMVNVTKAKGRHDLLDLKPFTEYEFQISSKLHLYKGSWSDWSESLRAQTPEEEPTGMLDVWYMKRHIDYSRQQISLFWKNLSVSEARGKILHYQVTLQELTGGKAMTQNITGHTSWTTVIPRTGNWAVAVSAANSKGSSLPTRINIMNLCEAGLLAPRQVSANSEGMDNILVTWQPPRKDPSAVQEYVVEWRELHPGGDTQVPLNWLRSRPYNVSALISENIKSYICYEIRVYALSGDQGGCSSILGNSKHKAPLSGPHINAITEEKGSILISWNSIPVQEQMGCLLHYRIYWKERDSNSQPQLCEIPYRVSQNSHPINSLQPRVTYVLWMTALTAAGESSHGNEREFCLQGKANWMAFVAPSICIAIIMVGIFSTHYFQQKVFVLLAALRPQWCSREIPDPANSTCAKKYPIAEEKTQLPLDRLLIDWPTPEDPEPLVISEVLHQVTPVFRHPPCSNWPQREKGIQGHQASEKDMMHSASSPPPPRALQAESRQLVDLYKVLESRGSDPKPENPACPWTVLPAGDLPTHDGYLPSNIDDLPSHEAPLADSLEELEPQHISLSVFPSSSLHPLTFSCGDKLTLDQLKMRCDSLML

| IL-12 signal transduction, HEK-IL-12 | Binder |
| --- | --- |
| < 0.2% | B1 |
| < 0.2% | B2 |
| < 0.2% | B3 |
| < 0.2% | B4 |
| < 0.2% | B5 |

What follows are binders tested against T1, human IL-2 receptor (IL-2Rα, IL-2Rβ, …) (assay: cell-based or functional assay).

| IL-2 signal transduction, HEK-IL-2 | Binder |
| --- | --- |
| < 0.1% | B1 |
| 2% | B2 |
| < 0.1% | B3 |
| 4% | B4 |
| 12% | B5 |

What follows are binders tested against T2, human TIGIT on HEK-Blue reporter cells (assay: cell-based or functional assay).

| IL-2 signal transduction, HEK-IL-2-TIGIT | IL-12 signal transduction, HEK-IL-12-TIGIT | Binder |
| --- | --- | --- |
| < 0.1% | 21% | B1 |
| 20% | 19% | B2 |
| < 0.1% | 15% | B3 |
| 35% | 17% | B4 |
| 78% | 21% | B5 |
